Assay results taken from the Immune Epitope Database (IEDB).

Key:
Assay in all cases: IEDB peptide-MHC binding, purified MHC/competitive/radioactivity; ≥ and ≤ were set here for values at or beyond the usual limits of such assays
HLA-A*68:02 = molecular target: HLA-A*68:02
HLA-A*02:06 = molecular target: HLA-A*02:06
HLA-A*02:01 = molecular target: HLA-A*02:01
HLA-A*02:03 = molecular target: HLA-A*02:03
HLA-A*02:02 = molecular target: HLA-A*02:02
[1] = source organism: Vaccinia virus WR
[2] = source organism: Mammarenavirus guanaritoense
[3] = source organism: Mammarenavirus choriomeningitidis
[4] = source organism: Hepacivirus hominis

Sequence | IC50 (HLA-A*68:02; [1]) | IC50 (HLA-A*02:06; [1]) | IC50 (HLA-A*02:01; [1]) | IC50 (HLA-A*02:03; [1]) | IC50 (HLA-A*02:02; [1]) | IC50 (HLA-A*68:02; source organism: SARS-CoV1) | IC50 (HLA-A*02:06; source organism: SARS-CoV1) | IC50 (HLA-A*02:01; source organism: SARS-CoV1) | IC50 (HLA-A*02:03; source organism: SARS-CoV1) | IC50 (HLA-A*02:02; source organism: SARS-CoV1) | other results
PMSRLFMDEI | 1360 nM | 4370 nM | 4020 nM | 726 nM | 1930 nM | – | – | – | – | – | –
DQTHIKTIAV | 404 nM | 1000 nM | 650 nM | 390 nM | 2170 nM | – | – | – | – | – | –
MAAAKTPVI | 16 nM | 672 nM | 1370 nM | 209 nM | 259 nM | – | – | – | – | – | –
NVIGLIVIL | 0.17 nM | 15 nM | 342 nM | 2400 nM | 85 nM | – | – | – | – | – | –
FTLLFQLCT | – | – | – | – | – | 2740 nM | 140 nM | 133 nM | 744 nM | 1100 nM | –
TLLCVLAALV | – | – | – | – | – | 4390 nM | 65 nM | 29 nM | 77 nM | 4.6 nM | –
YLMCLSPLM | – | – | – | – | – | 1240 nM | 1.1 nM | 0.34 nM | 0.3 nM | 0.14 nM | –
YCNYTRFWYI | – | – | – | – | – | – | – | – | – | – | IC50 (HLA-A*68:02; [2]): 1340 nM; IC50 (HLA-A*02:06; [2]): 81 nM; IC50 (HLA-A*02:01; [2]): 322 nM; IC50 (HLA-A*02:03; [2]): 4340 nM; IC50 (HLA-A*02:02; [2]): 1060 nM
AVITETIPI | 60 nM | 6.5 nM | 467 nM | 43 nM | 324 nM | – | – | – | – | – | –
SLVKPTVYV | – | – | – | – | – | 145 nM | 473 nM | 106 nM | 37 nM | 108 nM | –
ALMDLLMFS | – | – | – | – | – | – | – | – | – | – | IC50 (HLA-A*68:02; [3]): 2990 nM; IC50 (HLA-A*02:06; [3]): 14 nM; IC50 (HLA-A*02:01; [3]): 2.4 nM; IC50 (HLA-A*02:03; [3]): 104 nM; IC50 (HLA-A*02:02; [3]): 0.94 nM
IVDTVSALV | – | – | – | – | – | 301 nM | 43 nM | 58 nM | 528 nM | 17 nM | –
LIYDDNIDSI | 199 nM | 212 nM | 658 nM | 26 nM | 121 nM | – | – | – | – | – | –
NMDWRSLTQV | 826 nM | 1.7 nM | 4.2 nM | 17 nM | 100 nM | – | – | – | – | – | –
AISAVYFKA | 77 nM | 149 nM | 41 nM | 525 nM | 3.7 nM | – | – | – | – | – | –
IVYGRSNAI | 6.1 nM | 30 nM | 228 nM | 16 nM | 15 nM | – | – | – | – | – | –
YIAGLKIEEI | 669 nM | 134 nM | 9.5 nM | 5.3 nM | 8.9 nM | – | – | – | – | – | –
GLMWLSYFV | – | – | – | – | – | 44 nM | 0.97 nM | 0.71 nM | 0.82 nM | 0.2 nM | –

Sequence | IC50 (HLA-A*68:02; [1]) | IC50 (HLA-A*02:06; [1]) | IC50 (HLA-A*02:01; [1]) | IC50 (HLA-A*02:03; [1]) | IC50 (HLA-A*02:02; [1]) | IC50 (HLA-A*68:02; source organism: SARS-CoV1) | IC50 (HLA-A*02:06; source organism: SARS-CoV1) | IC50 (HLA-A*02:01; source organism: SARS-CoV1) | IC50 (HLA-A*02:03; source organism: SARS-CoV1) | IC50 (HLA-A*02:02; source organism: SARS-CoV1) | other results
LLWFLTGTFV | 0.13 nM | 18 nM | 0.32 nM | 9.2 nM | 2.4 nM | – | – | – | – | – | –
SLPSYAAYA | – | – | – | – | – | 334 nM | 8.7 nM | 3.9 nM | 2.6 nM | 6.7 nM | –
STDQDTMLFA | 1550 nM | 2020 nM | 3520 nM | 4700 nM | 646 nM | – | – | – | – | – | –
KLIEYSDFA | – | – | – | – | – | 10 nM | 0.71 nM | 0.54 nM | 0.53 nM | 0.095 nM | –
NLILNFLDWI | 3710 nM | 443 nM | 4390 nM | 283 nM | 1690 nM | – | – | – | – | – | –
TIKESLLKET | 296 nM | 87 nM | 85 nM | 149 nM | 1580 nM | – | – | – | – | – | –
SMSQELAELL | 1300 nM | 474 nM | 32 nM | 55 nM | 6.2 nM | – | – | – | – | – | –
IMFMLIFNV | 13 nM | 13 nM | 12 nM | 10 nM | 0.15 nM | – | – | – | – | – | –
TMADLVYAL | – | – | – | – | – | 20 nM | 47 nM | 6.5 nM | 16 nM | 0.18 nM | –
SLMAFTASI | – | – | – | – | – | – | – | – | – | – | IC50 (HLA-A*68:02; [4]): 284 nM; IC50 (HLA-A*02:06; [4]): 743 nM; IC50 (HLA-A*02:01; [4]): 106 nM; IC50 (HLA-A*02:03; [4]): 40 nM; IC50 (HLA-A*02:02; [4]): 19 nM
VTFINDYANL | 527 nM | 148 nM | 2480 nM | 247 nM | 99 nM | – | – | – | – | – | –
GLIAIVMVTI | – | – | – | – | – | 1670 nM | 137 nM | 61 nM | 19 nM | 7.6 nM | –
ALIARCWYL | – | – | – | – | – | 1260 nM | 0.98 nM | 0.46 nM | 17 nM | 0.2 nM | –
MTSTRTIILV | 173 nM | 217 nM | – | 920 nM | 1980 nM | – | – | – | – | – | –
TLNEDLLEI | – | – | – | – | – | 1460 nM | 56 nM | – | 2.2 nM | 1.4 nM | –
YLNTPGLPV | – | – | – | – | – | – | – | – | – | – | IC50 (HLA-A*68:02; [4]): 196 nM; IC50 (HLA-A*02:06; [4]): 847 nM; IC50 (HLA-A*02:03; [4]): 12 nM; IC50 (HLA-A*02:02; [4]): 9.3 nM
FLTSLLILV | – | – | – | – | – | 260 nM | 3.3 nM | – | 12 nM | 2.2 nM | –
